{"source": "patent US6890526B2", "about": "“Methods and reagents for the treatment of multiple sclerosis” (Vanderbilt University, priority 1997, dated 2005)", "key": {"MS patients [1]": {"system": "MS patients", "assay": "Long-term combination therapy of 12 progressive MS patients, EDSS (Table 11)", "assay_type": "in vivo, human", "details": "patient #12; azithromycin substituted", "description": "All 12 patients were positive by PCR for the MOMP gene of C. pneumoniae in the CSF. In 10 of 12 patients, the highest Expanded Disability Status Scale (EDSS; Kurtzke, Neurology 33:1444-1152, 1983) score reached was sustained for six months. […] The antibiotic regimen in eight of 12 patients was a combination of rifampin (300 mg twice daily), amoxicillin (500 mg twice daily) and probenecid (500 mg daily)."}, "[2]": {"system": "MOMP gene of C. pneumoniae", "assay": "PCR/Southern hybridization of CSF for the MOMP gene", "details": "CSF PCR signal for the MOMP gene of C. pneumoniae after antibiotics; all patients PCR-positive before therapy", "experimental": "To at least 300 μl of CSF sample, 200 μl of HBSS containing 0.25% trypsin and 1 mM EDTA at pH 7.2 was added to achieve a final concentration of 0.1% trypsin, and the sample vortexed and then incubated at 37° C. for 30 minutes. Following incubation, the sample was again vortexed, centrifuged for 45 minutes at 12,000×g in a microcentrifuge, and the pellet resuspended in 20 μl of lysis buffer (0.5% sodium dodecylsulfate (SDS), 1% NP40, 0.2 M NaCl, 10 μM DTT, 10 mM EDTA, 20 mM Tris-HCl at pH 7.5). To this was added 8 μl of proteinase K (20 μg/ml; Boehringer-Mannheim, Indianapolis, Ind.), after which the specimen was mixed and incubated overnight at 37° C. […]\nPCR was carried out using the entire MOMP gene (1.2 kb) using Deep Vent polymerase in the manufacturer's buffer (New England Biolabs, Boston, Mass.) with no additional MgCl2. […] PCR reactions were analyzed by electrophoresis in 1% agarose gel for 45 minutes at 95 volts. For confirmation and enhanced sensitivity, the gels were further analyzed by Southern hybridization using a digoxigenin-labeled (DIG, Boehringer-Mannheim) MOMP gene probe from the TWAR strain of C. pneumoniae (ATCC VR-1310). […]\nNested PCR primers were chosen within the MOMP which are C. pneumoniae specific (located in variable domains 1 and 4) and yield a 727 bp band. […] PCR reactions were analyzed by electrophoresis in 1% agarose gel for 45 minutes at 95 volts. […]"}, "MS patients [3]": {"system": "MS patients", "assay": "Treatment of MS patients with combinations of anti-chlamydial agents, case histories (Tables 8-10)", "assay_type": "in vivo, human", "details": "patient; drug stopped, later phased back in", "from_the_text": "The case histories for these patients are described in Table 9."}, "IL-12/p40": {"system": "IL-12/p40", "assay": "Sandwich ELISA for IL-12/p40 in macrophage culture supernatants", "assay_type": "cell-based, mouse", "experimental": "(§1) Splenocytes were washed twice in PBS and plated in 24-well culture plates (Corning, Corning, N.Y.) in Dulbecco's minimal essential medium (DMEM; GIBCO BRL, Gaithersburg, Md.) containing 10% fetal calf serum (FCS; Hyclone, Logan, Utah) at 37° C. for two hours. Non-adherent cells were washed away by gentle rinsing in warm medium, and the macrophages were allowed to adhere to the plastic wells overnight. For optimal growth of macrophages, colony stimulating factor-1 (CSF-1) obtained from culture supernatants of LADMAC cells (American Type Tissue Collection (ATCC), Manassas, Va.) was added to reach a final concentration of 20%. After reaching confluence, cells were removed from the plastic wells by gentle trituration and examined for their purity by staining with fluoroscein-conjugated anti-CD11b and anti-I-As (clone 10-3.6) antibodies.\nIL-12/p40 in culture supernatants was quantitated using sandwich ELISA methodology. Antibody C17.15 was coated onto ELISA plates at 2 μg/ml in 100 μl of carbonate buffer at pH 9.3. After overnight incubation at 4° C., excess antibody was washed off, and the plates were blocked by addition of PBS containing 3% BSA. Samples and standards were plated in triplicate and incubated overnight at 4° C. […] The absorbance was read at 405 nm and sample concentrations of IL-12/p40 were calculated from a rIL-12/p40 standard curve."}, "iNOS": {"system": "iNOS", "assay": "Measurement of NO production (nitrite, Greiss reagent) in splenic macrophage culture supernatants", "assay_type": "cell-based, mouse", "experimental": "as §1\nEB antigens were prepared from concentrated C. pneumoniae EBs by treating them with 25 mM DTT, 2% 2-mercaptoethanol, and 2% dodecylsulfate (SDS) for 5 minutes at 100° C. Treated EBs were sonicated, centrifuged (500×g for 30 minutes at room temperature) and the supernatant resuspended at 2 μg/ml protein in PBS pH 7.4. Concentrated C. pneumoniae EBs were obtained by growing C. pneumoniae (VR-1310; ATTC) in 25 ml flasks containing a confluent growth of HL cells (Human Lung Carcinoma Cells; Washington University Foundation, Seattle, Wash.) in DMEM and 10% FCS . Infection was facilitated by two washes with Hank's balanced salt solution (HBSS; GIBCO) followed by a 20 minute pre-incubation with diethylaminoethyl-dextran (30 μg/ml) (DEAE-Dextran; GIBCO) in HBSS. The infectious inoculum (ATCC VR-1310) was added to the flasks in 2 ml of serum-free media. The flasks were then centrifuged at 1,200×g for 1 hour at 4° C. To the spun flasks was added 2 ml of Iscoves medium (GIBCO) containing 4 μg/ml cyclohexamide, 20% FCS, 4 mM L-glutamine (Sigma), and 100 μg/ml gentamicin (Sigma). The flasks were then incubated at 35° C. for three days at which time the infected cells begin to lyse and release EBs. On day 4, the culture flasks were sonicated for 20 seconds, and the cell debris removed by centrifugation at 600×g for five minutes at room temperature. The supernatant containing the infectious EBs was centrifuged at 18,000×g for 30 minutes, and the pellet resolubilized in water containing 25 mM DTT, 2% 2-mercaptoethanol, and 2% SDS.\nPreparation of purified rMOMP was performed as follows. The full-length native C. pneumoniae MOMP gene was expressed in the pET-32/a (+) E. coli expression system using a polyhistidine tag (Novagen, Madison, Wis.). Briefly the MOMP was amplified under the same PCR conditions with a NcoI extension on the forward primer and a NotI extension on the reverse primer. The 5′ to 3′ sequence of the forward primer was AGCTTACCATGGTGAATGAAAAAACTCTTAAAGTCGGCG (SEQ ID NO: 9) and the reverse primer was ATATGCGGCCGCTCATTAGAATCTGAACTGACCAGATACG (SEQ ID NO: 10). The product was cut with NotI and NcoI and ligated into the multiple cloning site in a previously linearized pET vector. E. coli was transformed and selectively grown, lysed with a French press, and the protein extract was run over a Ni-chelate column and eluted with […]. […]\nNO is rapidly oxidized to nitrite in culture medium. […] After a 10 minute incubation at room temperature, the absorbance was read at 550 nm. Nitrite concentrations were calculated from a sodium nitrite standard curve."}, "iNOS (NOS2) gene": {"system": "iNOS (NOS2) gene", "assay": "RT-PCR for iNOS (NOS2) gene products in splenic macrophages", "assay_type": "cell-based, mouse", "details": "β-IFN alone; compared with GAPDH mRNA (FIG. 12A)", "experimental": "as §1\nMouse splenic macrophages were homogenized in TRI reagent (Molecular Research Center, Cincinnati, Ohio), and total RNA was extracted according to the manufacturer's protocol. […]"}}}
{"molecule": "CO[C@H]1/C=C/O[C@@]2(C)Oc3c(C)c(O)c4c(O)c(c(/C=N/N5CCN(C)CC5)c(O)c4c3C2=O)NC(=O)/C(C)=C\\C=C\\[C@H](C)[C@H](O)[C@@H](C)[C@@H](O)[C@@H](C)[C@H](OC(C)=O)[C@@H]1C", "note": "[rifampin]", "values": [{"measurement": "side effects", "setting": "MS patients [1]", "result": "gastrointestinal side effects"}]}
{"molecule": "CC[C@H]1OC(=O)[C@H](C)[C@@H](O[C@H]2C[C@@](C)(OC)[C@@H](O)[C@H](C)O2)[C@H](C)[C@@H](O[C@@H]2O[C@H](C)C[C@H](N(C)C)[C@H]2O)[C@](C)(O)C[C@@H](C)CN(C)[C@H](C)[C@@H](O)[C@]1(C)O", "note": "[azithromycin]", "values": [{"measurement": "PCR Signal Post-antibiotics", "setting": "[2]", "result": "Absent"}]}
{"molecule": "Cc1ncc([N+](=O)[O-])n1CCO", "note": "[metronidazole, Metronidazole]", "values": [{"measurement": "side effects", "setting": "MS patients [3]", "result": "side effects"}]}
{"molecule": "β-IFN: Murine β-IFN obtained commercially (Bio-Source International); type-1 interferon (protein, UniProt P01575 22-182, looked up) Interferon beta: INYKQLQLQERTNIRKCQELLEQLNGKINLTYRADFKIPMEMTEKMQKSYTAFAIQEMLQNVFLVFRNNFSSTGWNETIVVRLLDELHQQTVFLKTVLEEKQEERLTWEMSSTALHLKSYYWRVQRYLKLMKYNSYAWMVVRAEIFRNFLIIRRLTRNFQN", "values": [{"measurement": "suppression of induction of IL12/p40", "setting": "IL-12/p40; 10 U of β-IFN, EB antigens", "result": 78, "unit": "%"}, {"measurement": "IL-12/p40 levels", "setting": "IL-12/p40; macrophages pretreated with β-IFN, then EB antigens for 48 hours (FIG. 14)", "result": "1.5 ± 0.09", "unit": "ng/mL"}, {"measurement": "nitrite levels", "setting": "iNOS; 10 U of β-IFN added to EB antigen-treated macrophages, 48 hours (FIG. 10)", "result": "27.3 ± 0.4", "unit": "µM"}, {"measurement": "increase in NO", "setting": "iNOS; 10 U of β-IFN, macrophages cultured with LPS", "result": 35, "unit": "%"}, {"measurement": "increase in the nitrite level", "setting": "iNOS; 10 U of β-IFN, macrophages incubated with 2 μg/ml of rMOMP", "result": 47, "unit": "%"}, {"measurement": "nitrite levels in supernatants", "setting": "iNOS; prior addition of 1000 U of β-IFN to EB antigen-treated cultures, 48 hours (FIG. 9)", "result": 19.6, "unit": "µM"}, {"measurement": "nitrite levels in macrophage culture supernatants", "setting": "iNOS; β-IFN alone, no antigen", "result": "did not increase nitrite levels"}, {"measurement": "RT-PCR signals for NOS2 gene", "setting": "iNOS (NOS2) gene", "result": "increased RT-PCR signals for NOS2 gene"}]}
